Experimental data: patent US20260347498 (published 2026)

Columns and labels:
human FcRn [1] = target: T1, human FcRn (human, UniProt P55899); test: SPR, pH 7.4
human FcRn [2] = target: T1, human FcRn; test: SPR, pH 6.0
FcγRIIIa F158 = FcγRIIIa F158 (human, UniProt P08637); test: SPR
FcγRIIa R131 = target: T2, FcγRIIa R131 (human, UniProt P12318); test: SPR
T2 chain: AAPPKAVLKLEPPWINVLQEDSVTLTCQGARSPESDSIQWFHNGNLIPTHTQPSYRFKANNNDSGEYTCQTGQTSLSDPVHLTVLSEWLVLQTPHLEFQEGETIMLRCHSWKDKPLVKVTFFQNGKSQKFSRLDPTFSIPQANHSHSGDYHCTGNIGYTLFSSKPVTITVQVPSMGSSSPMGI

FcγRIa = target: T3, FcγRIa (human, UniProt P12314); test: SPR
T3 chain: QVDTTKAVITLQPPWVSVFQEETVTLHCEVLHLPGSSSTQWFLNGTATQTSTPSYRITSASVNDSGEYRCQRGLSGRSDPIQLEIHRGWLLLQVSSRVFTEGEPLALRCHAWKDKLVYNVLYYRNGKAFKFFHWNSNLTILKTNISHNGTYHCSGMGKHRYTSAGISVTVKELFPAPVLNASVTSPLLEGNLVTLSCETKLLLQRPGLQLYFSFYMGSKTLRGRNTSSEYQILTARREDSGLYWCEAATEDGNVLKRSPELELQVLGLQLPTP

FcγRIIIa V158 = FcγRIIIa V158 (human, UniProt P08637); test: SPR
Chain of FcγRIIIa V158 (P08637 17-208 F176V): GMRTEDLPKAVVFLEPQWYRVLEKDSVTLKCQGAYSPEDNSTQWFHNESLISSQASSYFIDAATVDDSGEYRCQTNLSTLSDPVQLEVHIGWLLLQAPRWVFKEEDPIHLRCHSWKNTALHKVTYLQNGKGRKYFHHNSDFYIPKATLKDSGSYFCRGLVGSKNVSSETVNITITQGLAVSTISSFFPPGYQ

FcγRIIa H131 = target: T4, FcγRIIa H131 (human, UniProt P12318); test: SPR
T4 chain: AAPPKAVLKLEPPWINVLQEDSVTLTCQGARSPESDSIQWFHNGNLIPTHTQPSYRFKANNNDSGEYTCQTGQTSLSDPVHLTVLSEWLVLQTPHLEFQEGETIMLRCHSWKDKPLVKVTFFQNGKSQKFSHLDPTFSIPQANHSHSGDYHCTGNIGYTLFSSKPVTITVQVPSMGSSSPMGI

FcγRIIb = target: T5, FcγRIIb (human, UniProt P31994); test: SPR
T5 chain: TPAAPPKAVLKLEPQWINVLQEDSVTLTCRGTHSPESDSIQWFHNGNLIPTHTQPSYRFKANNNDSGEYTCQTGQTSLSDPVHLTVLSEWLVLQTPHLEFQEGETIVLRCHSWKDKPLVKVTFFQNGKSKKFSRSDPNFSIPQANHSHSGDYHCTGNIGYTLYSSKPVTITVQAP

[3] = target: T6, human EpCAM on DiFi cells (human); test: FACS, DiFi cells
T6 chain: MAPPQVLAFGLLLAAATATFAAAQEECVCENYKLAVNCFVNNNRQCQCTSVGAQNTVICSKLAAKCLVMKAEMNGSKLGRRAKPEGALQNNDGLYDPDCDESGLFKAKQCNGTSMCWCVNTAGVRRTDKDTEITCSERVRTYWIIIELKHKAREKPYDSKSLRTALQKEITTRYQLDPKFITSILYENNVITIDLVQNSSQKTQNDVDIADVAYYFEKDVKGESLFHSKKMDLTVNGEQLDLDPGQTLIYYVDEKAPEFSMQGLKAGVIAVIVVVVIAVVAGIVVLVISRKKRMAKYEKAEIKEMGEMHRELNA

[4] = target: T7, human EpCAM extracellular domain (human); test: BLI, 30C, monovalent
T7 chain: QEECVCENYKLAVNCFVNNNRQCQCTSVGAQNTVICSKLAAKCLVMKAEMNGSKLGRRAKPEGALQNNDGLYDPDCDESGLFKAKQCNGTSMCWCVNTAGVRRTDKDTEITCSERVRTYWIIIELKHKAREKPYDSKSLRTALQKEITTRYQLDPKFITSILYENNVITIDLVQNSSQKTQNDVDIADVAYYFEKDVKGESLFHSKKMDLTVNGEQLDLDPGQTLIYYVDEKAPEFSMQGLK

Chain of FcγRIIIa F158 (P08637 17-208): as the sequence (P08637 17-208 F176V) above, with V160F counted along it

| Binder | binding result (human FcRn [1]) | Kd (human FcRn [2]) [µM] | binding result (FcγRIIIa F158) | binding result (FcγRIa) | binding result (FcγRIIIa V158) | binding result [3] | Kd [4] [µM] | other results |
| --- | --- | --- | --- | --- | --- | --- | --- | --- |
| IgG1-CD137-009-HC7LC2-FEAR (antibody) chain 1: EVQLVESGGGLVQPGRSLRLSCTASGFSLNDYWMSWVRQAPGKGLEWVGYIDVGGSLYYAASVKGRFTISRDDSKSIAYLQMNSLKTEDTAVYYCARGGLTYGFDLWGQGTLVTVSSASTKGPSVFPLAPSSKSTSGGTAALGCLVKDYFPEPVTVSWNSGALTSGVHTFPAVLQSSGLYSLSSVVTVPSSSLGTQTYICNVNHKPSNTKVDKRVEPKSCDKTHTCPPCPAPEFEGGPSVFLFPPKPKDTLMISRTPEVTCVVVAVSHEDPEVKFNWYVDGVEVHNAKTKPREEQYNSTYRVVSVLTVLHQDWLNGKEYKCKVSNKALPAPIEKTISKAKGQPREPQVYTLPPSREEMTKNQVSLTCLVKGFYPSDIAVEWESNGQPENNYKTTPPVLDSDGSFFLYSRLTVDKSRWQQGNVFSCSVMHEALHNHYTQKSLSLSPG chain 2: DIVMTQSPSSLSASVGDRVTITCQASEDISSYLAWYQQKPGKAPKRLIYGASDLASGVPSRFSASGSGTDYTFTISSLQPEDIATYYCHYYATISGLGVAFGGGTKVEIKRTVAAPSVFIFPPSDEQLKSGTASVVCLLNNFYPREAKVQWKVDNALQSGNSQESVTEQDSKDSTYSLSSTLTLSKADYEKHKVYACEVTHQGLSSPVTKSFNRGEC | no binding | 0.375 | no binding | no binding | no binding | – | – | binding result (FcγRIIa R131): no binding; binding result (FcγRIIa H131): no binding; binding result (FcγRIIb): no binding |
| BisG1-b12-FEAL/EpCAM-A37-FEAR (EpCAM arm) (antibody, V domains shown) VH: QVQLVQSGAEVKKPGSSVRVSCKASGGTFSSYAISWVRQAPGQGLEWMGGIIPIFGTANYAQKFQGRVTITADESTSTAYMELSSLRSEDTAVYYCARDPFLHYWGQGTLVTVSS VL: EIELTQSPGTLSLSPGERATLSCRASQTISNNYLAWYQQKRGQAPRLLIYAASSRATGIPDRFSGTGSGTDFTLTISRLEPEDFAVYYCAQGELYPRQFGGGTKLEIK | – | – | – | – | – | – | 0.02 | – |
| BisG2amm-EpCAM-323-A3-AALT/m4-1BB-3H3-AAKR (EpCAM arm) (antibody, V domains shown) VH: QIQLVQSGPELKKPGETVKISCKASGYTFTNYGMNWVRQASGEGLKWMGWINTYTGEPTYGEDFKGRFAFSLETSASTAYLQINNLKNEDTATYFCARFGNYVDYWGQGTTLTVSS VL: DIVMTQAAFSNPVTLGTSASISCRSSKNLLHSNGITYLYWYLQKPGQSPHLLIYQMSNLASGVPDRFSSSGSGTDFTLRISRVEAEDVGVYYCAQNLEIPRTFGGGTKLEIKR | – | – | – | – | – | – | 0.0032 | – |

The next lines start with results.

| binding result (human FcRn [1]) | Kd (human FcRn [2]) [µM] | binding result (FcγRIIIa F158) | binding result (FcγRIa) | binding result (FcγRIIIa V158) | binding result [3] | Kd [4] [µM] | Binder | other results |
| --- | --- | --- | --- | --- | --- | --- | --- | --- |
| – | – | – | – | – | no binding | – | bsIgG1-b12-FERL/CD137-009-HC7LC2-FEAR (antibody) chain 1: QVQLVQSGAEVKKPGASVKVSCQASGYRFSNFVIHWVRQAPGQRFEWMGWINPYNGNKEFSAKFQDRVTFTADTSANTAYMELRSLRSADTAVYYCARVGPYSWDDSPQDNYYMDVWGKGTTVIVSSASTKGPSVFPLAPSSKSTSGGTAALGCLVKDYFPEPVTVSWNSGALTSGVHTFPAVLQSSGLYSLSSVVTVPSSSLGTQTYICNVNHKPSNTKVDKRVEPKSCDKTHTCPPCPAPEFERGPSVFLFPPKPKDTLMISRTPEVTCVVVDVSHEDPEVKFNWYVDGVEVHNAKTKPREEQYNSTYRVVSVLTVLHQDWLNGKEYKCKVSNKALPAPIEKTISKAKGQPREPQVYTLPPSREEMTKNQVSLTCLVKGFYPSDIAVEWESNGQPENNYKTTPPVLDSDGSFLLYSKLTVDKSRWQQGNVFSCSVMHEALHNHYTQKSLSLSPG chain 2: EIVLTQSPGTLSLSPGERATFSCRSSHSIRSRRVAWYQHKPGQAPRLVIHGVSNRASGISDRFSGSGSGTDFTLTITRVEPEDFALYYCQVYGASSYTFGQGTKLERKRTVAAPSVFIFPPSDEQLKSGTASVVCLLNNFYPREAKVQWKVDNALQSGNSQESVTEQDSKDSTYSLSSTLTLSKADYEKHKVYACEVTHQGLSSPVTKSFNRGEC chain 3: EVQLVESGGGLVQPGRSLRLSCTASGFSLNDYWMSWVRQAPGKGLEWVGYIDVGGSLYYAASVKGRFTISRDDSKSIAYLQMNSLKTEDTAVYYCARGGLTYGFDLWGQGTLVTVSSASTKGPSVFPLAPSSKSTSGGTAALGCLVKDYFPEPVTVSWNSGALTSGVHTFPAVLQSSGLYSLSSVVTVPSSSLGTQTYICNVNHKPSNTKVDKRVEPKSCDKTHTCPPCPAPEFEGGPSVFLFPPKPKDTLMISRTPEVTCVVVAVSHEDPEVKFNWYVDGVEVHNAKTKPREEQYNSTYRVVSVLTVLHQDWLNGKEYKCKVSNKALPAPIEKTISKAKGQPREPQVYTLPPSREEMTKNQVSLTCLVKGFYPSDIAVEWESNGQPENNYKTTPPVLDSDGSFFLYSRLTVDKSRWQQGNVFSCSVMHEALHNHYTQKSLSLSPG chain 4: DIVMTQSPSSLSASVGDRVTITCQASEDISSYLAWYQQKPGKAPKRLIYGASDLASGVPSRFSASGSGTDYTFTISSLQPEDIATYYCHYYATISGLGVAFGGGTKVEIKRTVAAPSVFIFPPSDEQLKSGTASVVCLLNNFYPREAKVQWKVDNALQSGNSQESVTEQDSKDSTYSLSSTLTLSKADYEKHKVYACEVTHQGLSSPVTKSFNRGEC | – |
| no binding | 0.23 | no binding | no binding | no binding | – | – | IgG1-EpCAM-A37-FERL (antibody) chain 1: not shown chain 2: EIELTQSPGTLSLSPGERATLSCRASQTISNNYLAWYQQKRGQAPRLLIYAASSRATGIPDRFSGTGSGTDFTLTISRLEPEDFAVYYCAQGELYPRQFGGGTKLEIKRTVAAPSVFIFPPSDEQLKSGTASVVCLLNNFYPREAKVQWKVDNALQSGNSQESVTEQDSKDSTYSLSSTLTLSKADYEKHKVYACEVTHQGLSSPVTKSFNRGEC | – |
| – | – | – | – | – | no binding | – | bsIgG1-b12-FERL/b12-FEAR (antibody) chain 1: QVQLVQSGAEVKKPGASVKVSCQASGYRFSNFVIHWVRQAPGQRFEWMGWINPYNGNKEFSAKFQDRVTFTADTSANTAYMELRSLRSADTAVYYCARVGPYSWDDSPQDNYYMDVWGKGTTVIVSSASTKGPSVFPLAPSSKSTSGGTAALGCLVKDYFPEPVTVSWNSGALTSGVHTFPAVLQSSGLYSLSSVVTVPSSSLGTQTYICNVNHKPSNTKVDKRVEPKSCDKTHTCPPCPAPEFERGPSVFLFPPKPKDTLMISRTPEVTCVVVDVSHEDPEVKFNWYVDGVEVHNAKTKPREEQYNSTYRVVSVLTVLHQDWLNGKEYKCKVSNKALPAPIEKTISKAKGQPREPQVYTLPPSREEMTKNQVSLTCLVKGFYPSDIAVEWESNGQPENNYKTTPPVLDSDGSFLLYSKLTVDKSRWQQGNVFSCSVMHEALHNHYTQKSLSLSPG chain 2: EIVLTQSPGTLSLSPGERATFSCRSSHSIRSRRVAWYQHKPGQAPRLVIHGVSNRASGISDRFSGSGSGTDFTLTITRVEPEDFALYYCQVYGASSYTFGQGTKLERKRTVAAPSVFIFPPSDEQLKSGTASVVCLLNNFYPREAKVQWKVDNALQSGNSQESVTEQDSKDSTYSLSSTLTLSKADYEKHKVYACEVTHQGLSSPVTKSFNRGEC chain 3: QVQLVQSGAEVKKPGASVKVSCQASGYRFSNFVIHWVRQAPGQRFEWMGWINPYNGNKEFSAKFQDRVTFTADTSANTAYMELRSLRSADTAVYYCARVGPYSWDDSPQDNYYMDVWGKGTTVIVSSASTKGPSVFPLAPSSKSTSGGTAALGCLVKDYFPEPVTVSWNSGALTSGVHTFPAVLQSSGLYSLSSVVTVPSSSLGTQTYICNVNHKPSNTKVDKRVEPKSCDKTHTCPPCPAPEFEGGPSVFLFPPKPKDTLMISRTPEVTCVVVAVSHEDPEVKFNWYVDGVEVHNAKTKPREEQYNSTYRVVSVLTVLHQDWLNGKEYKCKVSNKALPAPIEKTISKAKGQPREPQVYTLPPSREEMTKNQVSLTCLVKGFYPSDIAVEWESNGQPENNYKTTPPVLDSDGSFFLYSRLTVDKSRWQQGNVFSCSVMHEALHNHYTQKSLSLSPG chain 4: EIVLTQSPGTLSLSPGERATFSCRSSHSIRSRRVAWYQHKPGQAPRLVIHGVSNRASGISDRFSGSGSGTDFTLTITRVEPEDFALYYCQVYGASSYTFGQGTKLERKRTVAAPSVFIFPPSDEQLKSGTASVVCLLNNFYPREAKVQWKVDNALQSGNSQESVTEQDSKDSTYSLSSTLTLSKADYEKHKVYACEVTHQGLSSPVTKSFNRGEC | – |
